Values quoted from earlier work as cited in publication PMC3283658.

Molecular target: IL-15Rβγ (Homo sapiens) (UniProt P14784)
UniProt P14784, sequence (P14784 27-240, chain 1 of 2): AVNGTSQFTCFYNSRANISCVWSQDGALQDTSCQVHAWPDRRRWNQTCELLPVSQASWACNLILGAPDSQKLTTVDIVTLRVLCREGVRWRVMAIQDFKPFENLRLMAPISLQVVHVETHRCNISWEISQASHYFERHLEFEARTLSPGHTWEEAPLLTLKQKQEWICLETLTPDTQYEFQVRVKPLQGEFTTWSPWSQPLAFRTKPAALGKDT
UniProt P14784, sequence (P31785 23-262, chain 2 of 2, further chain): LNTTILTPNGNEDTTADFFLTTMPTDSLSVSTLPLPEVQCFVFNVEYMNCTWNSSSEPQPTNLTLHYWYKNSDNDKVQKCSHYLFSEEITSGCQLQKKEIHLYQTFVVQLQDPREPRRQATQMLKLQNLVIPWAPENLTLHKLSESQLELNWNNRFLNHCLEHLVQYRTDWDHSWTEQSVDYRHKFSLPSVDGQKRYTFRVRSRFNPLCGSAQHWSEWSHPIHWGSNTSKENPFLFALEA

Question: With IL-15 (from UniProt P40933) as the substance, how does the Kd read?
Answer: 4 nM
